Read-outs that look alike come from different tables or passages of the source.
Legend:
Test in all cases: ITC; aliquots of HasBCTD variants (80-200 μM) injected into the cell containing HasR wild type or mutant proteins (4-15 μM); 25°C; 20 mM sodium phosphate, pH 7, 0.08% Zwittergent 3-14; fit to a model with one set of sites
[1] = target: HasR_(ΔNterL1) (HasR_(ΔNter) with loop L1 P232GKE replaced by ATSA) (Serratia marcescens) (UniProt Q79AD2)
[2] = target: HasR_(ΔNter) (HasR without the signaling domain, linker and TonB-box) (Serratia marcescens) (UniProt Q79AD2)
[3] = target: HasR_(ΔNterL1) (HasR_(ΔNter) with loop L1 P232GKE replaced by ATSA) (Serratia marcescens) (UniProt Q79AD2); remark: listed apart in the source
[4] = target: HasR_(ΔNterL10short) (HasR_(ΔNter) with loop L10 R774AFDRKLD replaced by ATSA) (Serratia marcescens) (UniProt Q79AD2)
[5] = target: HasR wild type (outer membrane heme transporter, TonB-dependent transporter) (Serratia marcescens)
[6] = target: HasR_(ΔNter) (HasR without the signaling domain, linker and TonB-box) (Serratia marcescens) (UniProt Q79AD2); remark: listed apart in the source

Substance: HasBCTD (periplasmic C-terminal domain of the TonB-like protein HasB), wild type (domain or fragment)
- dH [1]: 9.2 kcal/mol
- dH [2]: 11.1 kcal/mol
- Ka [3]: 3.03e+06 M⁻¹
- dH [3]: -9.2 kcal/mol
- stoichiometry N [3]: 1.1
- Ka [4]: 1.45e+08 M⁻¹
- dH [4]: -2.9 kcal/mol
- stoichiometry N [4]: 0.98
- Ka [5]: 7.5e+07 M⁻¹
- dH [5]: -19.1 kcal/mol
- stoichiometry N [5]: 1.03
- Ka [6]: 2.3e+06 M⁻¹
- dH [6]: -11.1 kcal/mol
- stoichiometry N [6]: 1.1

Reference: paper PMC11633176
